For assay [1], the target named is T1, biotinylated PCSK9 (UniProt Q8NBP7 31-692, limits assumed, biotinylated).
T1 construct: also called europium-labeled PCSK9
The assay can be described thus: method of the KD not told; tracer of the Alexa FRET Standard assay.

The target of assay [2] is T1, biotinylated PCSK9. The assay can be described thus: method of the KD not told; tracer of the Alexa FRET Plus assay.

Starred links: 1 amine or outer side, 2 acyl side, 3 side chain; linkers in the order of their positions; H or OH if unused. Positions of bridges follow the written chain, without caps; N, C: chain ends. Non-standard residues stand in square brackets, D forms with d. Phe(4-OMe) = COc1ccc(C[C@H](N[*:1])C(=O)[*:2])cc1; Trp(5-F) = N[C@@H](Cc1c[nH]c2ccc(F)cc12)C(=O)O; mXylylene = c1cc(C[*:1])cc(C[*:2])c1; αMeP = C[C@@]1(C(=O)O)CCCN1; Mpa = O=C(O)CCS

T1 sequence (Q8NBP7 31-692 limits assumed): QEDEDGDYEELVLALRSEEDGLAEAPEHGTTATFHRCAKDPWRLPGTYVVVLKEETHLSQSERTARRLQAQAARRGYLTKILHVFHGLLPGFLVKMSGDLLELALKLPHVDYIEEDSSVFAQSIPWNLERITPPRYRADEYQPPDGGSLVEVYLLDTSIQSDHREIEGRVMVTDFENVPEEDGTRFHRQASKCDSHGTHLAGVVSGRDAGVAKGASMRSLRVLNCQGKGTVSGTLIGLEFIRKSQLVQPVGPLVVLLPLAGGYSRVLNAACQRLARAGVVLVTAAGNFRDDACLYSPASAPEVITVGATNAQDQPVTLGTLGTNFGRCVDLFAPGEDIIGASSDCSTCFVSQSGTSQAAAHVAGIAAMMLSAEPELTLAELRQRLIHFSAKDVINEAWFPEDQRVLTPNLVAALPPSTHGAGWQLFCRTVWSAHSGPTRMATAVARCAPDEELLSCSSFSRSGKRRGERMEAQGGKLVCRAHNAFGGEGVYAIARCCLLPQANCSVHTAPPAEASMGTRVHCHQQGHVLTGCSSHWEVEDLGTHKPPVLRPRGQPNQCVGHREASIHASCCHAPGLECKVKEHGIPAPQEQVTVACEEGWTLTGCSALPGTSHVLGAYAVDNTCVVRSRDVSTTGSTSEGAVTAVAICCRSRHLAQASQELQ

B1: Reagent A (peptide)
peptide: [Mpa]K(AlexaFluor647)G[Trp(5-F)][Trp(5-F)]DHY[αMeP]C-NH2
modifications: linker N-10 via mXylylene
notes: also called AlexaFluor647 (AF) tagged cyclic peptide; AF cyclic peptide
Turning to B1, the Kd with biotinylated PCSK9 [1] worked out at 83 nM.

B2: Reagent B (peptide)
peptide: [Mpa]K(AlexaFluor647)[dA][Trp(5-F)][Trp(5-F)]DH[Phe(4-OMe)][αMeP]C-NH2
modifications: linker N-10 via mXylylene
notes: as for B1
As for B2, the Kd with biotinylated PCSK9 [2] stood at 35 nM.

(Values after patent US20210284694A1 (published 2021).)
